Legend:
[1] = molecular target: T1, human RNF43 extracellular domain (hRNF43 ECD) (human, UniProt Q68DV7 44-197, biotinylated (His-Avi tag)); assay: ELISA (binding specificity)
T1 construct: Expressed with a His-Avi tag at the N-terminus and biotinylated; also called human RNF3 (Q44-D198)
T1 sequence: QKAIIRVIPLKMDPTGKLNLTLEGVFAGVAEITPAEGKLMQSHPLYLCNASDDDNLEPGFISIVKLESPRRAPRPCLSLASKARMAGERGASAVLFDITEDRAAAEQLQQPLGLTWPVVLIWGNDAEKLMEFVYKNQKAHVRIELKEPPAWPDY

[2] = molecular target: T2, human ZNRF3 extracellular domain (hZNRF3 ECD) (human, UniProt Q9ULT6 56-219, biotinylated (His-Avi tag)); assay: ELISA (binding specificity)
T2 construct: Expressed with a His-Avi tag at the N-terminus and biotinylated; also called ZRNF3
T2 sequence: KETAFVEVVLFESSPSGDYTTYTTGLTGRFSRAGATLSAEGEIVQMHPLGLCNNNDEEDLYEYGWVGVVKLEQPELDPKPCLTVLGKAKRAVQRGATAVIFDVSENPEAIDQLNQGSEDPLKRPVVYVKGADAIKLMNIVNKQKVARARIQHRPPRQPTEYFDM

[3] = molecular target: T3, human ASGR1 extracellular domain (hASGR1 ECD) (human, UniProt P07306 62-291, biotinylated (His-Avi tag)); assay: BLI, Fab on hASGR1; KD only in the figure
T3 construct: His-Avi tag at the N-terminus, biotinylated for BLI; also called human ASGR1 ECD
T3 sequence: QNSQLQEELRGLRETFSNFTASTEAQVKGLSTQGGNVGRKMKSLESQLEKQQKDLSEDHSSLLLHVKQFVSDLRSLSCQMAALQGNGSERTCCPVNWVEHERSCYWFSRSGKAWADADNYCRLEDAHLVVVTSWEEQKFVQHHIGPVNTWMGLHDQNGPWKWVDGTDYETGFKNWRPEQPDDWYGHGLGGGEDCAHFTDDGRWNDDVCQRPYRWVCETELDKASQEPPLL

[4] = molecular target: T4, Fc portion of human IgG1-fused LGR5-ECD (R&D systems) (human, UniProt O75473 22-557, limits assumed); assay: BLI (Octet), LGR5-ECD-Fc on AHC sensor
T4 construct: extracellular domain; Bought reagent; also called LGRS; recombinant LGR5 protein; not shown: Fc portion of human IgG1
T4 sequence (looked up): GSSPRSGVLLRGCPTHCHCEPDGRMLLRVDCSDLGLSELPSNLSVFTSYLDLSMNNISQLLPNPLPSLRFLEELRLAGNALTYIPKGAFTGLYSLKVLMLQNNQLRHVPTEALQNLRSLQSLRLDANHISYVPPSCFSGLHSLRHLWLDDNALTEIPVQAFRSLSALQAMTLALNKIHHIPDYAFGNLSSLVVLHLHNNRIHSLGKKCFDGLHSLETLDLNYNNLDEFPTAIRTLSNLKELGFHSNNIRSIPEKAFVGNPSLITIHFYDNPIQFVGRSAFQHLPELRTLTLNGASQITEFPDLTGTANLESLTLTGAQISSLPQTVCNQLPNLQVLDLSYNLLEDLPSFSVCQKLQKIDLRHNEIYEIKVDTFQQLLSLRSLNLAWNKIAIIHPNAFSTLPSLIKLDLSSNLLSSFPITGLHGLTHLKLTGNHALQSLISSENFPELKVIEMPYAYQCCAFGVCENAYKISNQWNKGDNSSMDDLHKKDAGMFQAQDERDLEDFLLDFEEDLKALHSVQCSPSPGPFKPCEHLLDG
Experimental: (§1) Affinity measurement: Binding kinetics of the RSPO-derived proteins to LGRS, RNF43, or ZNRF3, and binding of the anti-ASGR Fabs to human and/or mouse ASGR1 were determined by bio-layer interferometry (BLI) using Octet Red 96 (PALL ForteBio, Fremont, CA) instruments at 30° C., 1000 rpm with either streptavidin (SA) or anti-hIgG Fc capture (AHC) biosensors. […] Following capture of ECDs of RNF43, ZNRF3 or LGRS, the biosensors were dipped into wells containing the relevant test molecules at 7 different concentrations in running buffer plus a well with only running buffer as a reference channel. KD was determined by steady-state analysis based on the average responses between 140 to 145 seconds of association phase, for binding to LGRS, RNF43, and ZNRF3. For the binding to ASGR, KD was determined by curve model fitting using the Octet® Red data analysis software (Fortebio)

[5] = molecular target: T2, human ZNRF3 extracellular domain …; assay: BLI (Octet), biotinylated ZNRF3 ECD on SA sensor
Experimental: as §1

[6] = molecular target: T1, human RNF43 extracellular domain …; assay: BLI (Octet), biotinylated RNF43 ECD on SA sensor
Experimental: as §1

[7] = molecular target: human transferrin receptor 1 (TFR1), on cells (human, UniProt P02786 1-760); assay: cell-based or functional assay
human transferrin receptor 1 (TFR1), on cells, sequence (P02786 whole entry): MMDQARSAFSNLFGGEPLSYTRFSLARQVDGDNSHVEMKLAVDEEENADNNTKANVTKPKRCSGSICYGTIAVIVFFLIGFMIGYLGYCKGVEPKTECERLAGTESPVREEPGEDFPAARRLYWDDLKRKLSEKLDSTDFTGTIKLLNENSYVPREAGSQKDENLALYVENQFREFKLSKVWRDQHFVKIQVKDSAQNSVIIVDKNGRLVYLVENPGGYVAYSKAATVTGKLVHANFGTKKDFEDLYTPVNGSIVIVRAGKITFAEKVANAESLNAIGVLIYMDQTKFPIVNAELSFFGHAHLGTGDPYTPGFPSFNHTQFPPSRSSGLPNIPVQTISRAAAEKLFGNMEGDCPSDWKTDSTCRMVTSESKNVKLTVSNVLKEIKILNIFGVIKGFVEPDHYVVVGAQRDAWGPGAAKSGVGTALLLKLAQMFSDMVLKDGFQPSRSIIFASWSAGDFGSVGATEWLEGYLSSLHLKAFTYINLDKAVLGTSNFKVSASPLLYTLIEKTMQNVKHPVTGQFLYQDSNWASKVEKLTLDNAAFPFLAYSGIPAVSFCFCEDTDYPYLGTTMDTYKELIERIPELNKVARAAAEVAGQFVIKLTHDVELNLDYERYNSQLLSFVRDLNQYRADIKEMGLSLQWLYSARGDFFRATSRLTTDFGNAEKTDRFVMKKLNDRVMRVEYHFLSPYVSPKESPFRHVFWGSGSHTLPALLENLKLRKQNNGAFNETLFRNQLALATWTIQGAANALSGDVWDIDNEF

B1: 020S-F07 (antibody, V domains shown)
VH: EVQLLESGGGLVQPGGSLRLSCAASGFTFSNYAMGWVRQAPGKGLEWVSYISRSSSTIYYADSVKGRFTISRDNSKNTLYLQMNSLRAEDTAVYYCARRRDGYNWGYWGQGTLVTVSS
VL: DIQMTQSPSSLSASVGDRVTITCRASQDISNSLNWYQQKPGKAPKLLIYAASTLQSGVPSRFSGSGSGTDFTLTISSLQPEDFATYYCQQSYSPPHTFGGGTKVEIK
Q: Does B1 bind [1]?
A: binds

Q: Does B1 bind [2]?
A: binds

B2: 020S-D07 (antibody, V domains shown)
VH: QVQLVQSGAEVKKPGSSVKVSCKASGGTFSNTDINWVRQAPGQGLEWMGGIIPIFGTANYAQKFQGRVTITADESTSTAYMELSSLRSEDTAVYYCVGGRSGWIWYFDLWGRGTLVTVSS
VL: DIQMTQSPSSLSASVGDRVTITCRASQSISRWLAWYQQKPGKAPKLLIYDASSLETGVPSRFSGSGSGTDFTLTISSLQPEDFATYYCQQAYSFPWTFGQGTKVEIK
Q: What does the source list for B2?
A: binding result [1]: binds; binding result [2]: binds

B3: 024S-D03 Fab (Fab, V domains shown)
VH: QVQLQQSGPGLVKPSQTLSLTCAISGDSVSSNSAAWNWMRQSPSRGLEWLGRTYYRSKWYNDYAVSVKSRMTINPDTSRNQFSLQLNSVTLEDTAVYYCARWNHEEHYFDYWGQGTLVTVSS
VL: EIVLTQSPATLSFSPGERATLSCRASQSVGSYLAWYQQRPGQAPRPLIYDATNRATGIPTRFSGSGSGTDFTLTISSLEPEDFATYYCQHRRTFGRGTKLEIK
notes: Tested as Fab, identified by phage display
Q: Does B3 bind [3]?
A: binds

B4: 024S-A04 Fab (Fab, V domains shown)
VH: QVQLQQSGPGLVKPSQTLSLTCAISGDSVSSNSVAWNWMRQSPSRGLEWLGRTYYRSKWYYDYAVSVKSRITINPDTSKNQFSLQLNSVTPEDTAVYYCASWTRGAFDIWGQGTMVTVSS
VL: DIQLTQSPATLSFSPGERATLSCRASQSVGSYLAWYQQRPGQAPRPLIYDATNRATGIPTRFSGSGSGTDFTLTISSLEPEDFATYYCQHRRTFGRGTKLEIK
notes: as for B3
Q: Does B4 bind [3]?
A: binds

B5: 024S-E03 Fab (Fab, V domains shown)
VH: QVQLQQSGPGLVKPSQTLSLTCAISGASVSSNSAAWNWIRQSPSRGLEWLGRTYYRSKWYNDYAVSVKSRITINPDTSKNQFSLQLNSVTPGDTAVYYCARWNHEEHYFDYWGQGTLVTVSS
VL: DVVMTQSPATLSFSPGERATLSCRASQSVGSYLAWYQQRPGQAPRPLIYDATNRATGIPTRFSGSGSGTDFTLTISSLEPEDFATYYCQHRRTFGRGTKLEIK
notes: as for B3
Q: Does B5 bind [3]?
A: binds

B6: αGFP-RSPO2-5mut (anti-GFP, RSPO2 (R65A/R69A/Q70A/F105A/F109A)) (other)
chain: QVQLVESGGGLVQPGGSLRLSCAASGFTFSRYGMHWVRQAPGKGLEWVSGISSIGSNTYYADSVKGRFTISRDNSKNTLYLQMNSLRAEDTAVYYCARWYKTYIDVWGQGTLVTVSSGGGGSGGGGSGGGGSDIELTQPPSVSVAPGQTARISCSGDNLGKKYVYWYQQKPGQAPVLVIYGDDERPSGIPERFSGSNSGNTATLTISGTQAEDEADYYCASYDSSHILIVFGGGTKLTVLGSGGSNPICKGCLSCSKDNGCSRCQQKLFFFLRAEGMAAYGECLHSCPSGYYGHRAPDMNRCARCRIENCDSCRSKDACTKCKVGFYLHRGRCFDECPDGFAPLEETMECVEGGDYKDDDDKGSHHHHHHHH
notes: scFv against GFP fused to the RSPO2 Fu1-Fu2 fragment with five mutations; FLAG-His tag; also called αGFP-RSPO2-Smut
Q: Does B6 bind [4]?
A: no binding

B7: αGFP-RSPO2-RA (anti-GFP, RSPO2 (F105R/F109A)) (other)
chain: QVQLVESGGGLVQPGGSLRLSCAASGFTFSRYGMHWVRQAPGKGLEWVSGISSIGSNTYYADSVKGRFTISRDNSKNTLYLQMNSLRAEDTAVYYCARWYKTYIDVWGQGTLVTVSSGGGGSGGGGSGGGGSDIELTQPPSVSVAPGQTARISCSGDNLGKKYVYWYQQKPGQAPVLVIYGDDERPSGIPERFSGSNSGNTATLTISGTQAEDEADYYCASYDSSHILIVFGGGTKLTVLGSGGSNPICKGCLSCSKDNGCSRCQQKLFFFLRREGMRQYGECLHSCPSGYYGHRAPDMNRCARCRIENCDSCRSKDACTKCKVGFYLHRGRCFDECPDGFAPLEETMECVEGGDYKDDDDKGSHHHHHHHH
notes: scFv against GFP fused to the RSPO2 Fu1-Fu2 fragment with F105R/F109A; FLAG-His tag
Q: Which results are given for B7?
A: binding result [5]: binds; binding result [6]: binds; binding result [4]: no binding

B8: αTFR1-RSPO2-RA (anti-TFR1, RSPO2 (F105R/F109A)) (other)
chain: QVQLQQSGPELVRPGVSVKISCKGSGYTFTDYAMHWVKQSHAKSLEWIGGISTYFGRTNYNQKFKGRATMTVDKSSSTAYMELARLTSEDSALYYCARGLSGNYVMDYWGQGTSVTVSSGGGGSGGGGSGGGGSDIVLFQSPASLAVSLGQRATISCRASESVDDYGNSFMHWYQQKPGQPPKLLIYRASNLESGIPARFSGSGSRTDFTLTINPVEADDVATYYCQQSNEAPPTFGGGTKLEIRGSGGSNPICKGCLSCSKDNGCSRCQQKLFFFLRREGMRQYGECLHSCPSGYYGHRAPDMNRCARCRIENCDSCRSKDACTKCKVGFYLHRGRCFDECPDGFAPLEETMECVEGGDYKDDDDKGSHHHHHHHH
notes: FLAG-His tag; also called αTFR-RSPO2-RA
Q: Which results are given for B8?
A: potency in the HEK293 STF reporter assay with Wnt sources [7]: ~20 fold; binding result [4]: no binding

B9: αTFR1-RSPO2-WT (anti-TFR1, RSPO2 wild type) (other)
chain: QVQLQQSGPELVRPGVSVKISCKGSGYTFTDYAMHWVKQSHAKSLEWIGGISTYFGRTNYNQKFKGRATMTVDKSSSTAYMELARLTSEDSALYYCARGLSGNYVMDYWGQGTSVTVSSGGGGSGGGGSGGGGSDIVLFQSPASLAVSLGQRATISCRASESVDDYGNSFMHWYQQKPGQPPKLLIYRASNLESGIPARFSGSGSRTDFTLTINPVEADDVATYYCQQSNEAPPTFGGGTKLEIRGSGGSNPICKGCLSCSKDNGCSRCQQKLFFFLRREGMRQYGECLHSCPSGYYGHRAPDMNRCARCRIENCDSCFSKDFCTKCKVGFYLHRGRCFDECPDGFAPLEETMECVEGGDYKDDDDKGSHHHHHHHH
Q: What does the source list for B9?
A: EC50 in the HEK293 STF reporter assay with Wnt sources [7]: ~20 fold; potency in the HEK293 STF reporter assay with Wnt sources [7]: ~400 fold

B10: αTFR1-RSPO2-5mut (anti-TFR1, RSPO2 (R65A/R69A/Q70A/F105A/F109A)) (other)
chain: QVQLQQSGPELVRPGVSVKISCKGSGYTFTDYAMHWVKQSHAKSLEWIGGISTYFGRTNYNQKFKGRATMTVDKSSSTAYMELARLTSEDSALYYCARGLSGNYVMDYWGQGTSVTVSSGGGGSGGGGSGGGGSDIVLFQSPASLAVSLGQRATISCRASESVDDYGNSFMHWYQQKPGQPPKLLIYRASNLESGIPARFSGSGSRTDFTLTINPVEADDVATYYCQQSNEAPPTFGGGTKLEIRGSGGSNPICKGCLSCSKDNGCSRCQQKLFFFLRAEGMAAYGECLHSCPSGYYGHRAPDMNRCARCRIENCDSCRSKDACTKCKVGFYLHRGRCFDECPDGFAPLEETMECVEGGDYKDDDDKGSHHHHHHHH
notes: FLAG-His tag; also called αTFR1-RSPO2-Smut; αTFR-RPOS-5mut
Q: Does B10 bind [5]?
A: no binding

Q: Does B10 bind [6]?
A: no binding

Q: Does B10 bind [4]?
A: no binding
